Experimental data as given in patent publication US20160237119A1 (UNIVERSITY OF TOKYO, published 2016).
Bridges are numbered along the chain shown (N, C = ends). Where no end group is shown, it is not given here. fluorescein = fluorescein fluorescent label attached to the peptide

Target: T1, human c-Met (human, UniProt P08581 25-1390)
T1 construct: whole, on cells; Endogenous receptor on human cell lines; alpha and beta sub-units come from one precursor; also called c-Met protein; HGF receptor
Test: confocal fluorescence microscopy on human c-Met expressing SNU-638 cells
Description: To human c-Met expressing cells (human SNU-638 cells) or human c-Met non-expressing cells (human SNU-216 cells) cultured on a glass-bottom dish were added a RPMI1640 medium containing 1 mg/L of Hoechst 33342, a nuclear staining reagent, an anti-human c-Met antibody, and 1 uM of L5-2-fluorescein, D4-3-fluorescein, D5-4-fluorescein, D4-3NMe-fluorescein, or D4-3scr-fluorescein and the resulting mixture was incubated in 5% CO₂ at 37° C. for 5 minutes. Then, a RPMI1640 medium containing an HRP-anti-rat secondary antibody and 1 μM of L5-2-fluorescein, D4-3-fluorescein, D5-4-fluorescein, D4-3NMe-fluorescein, or D4-3scr-fluorescein was added and the resulting mixture was incubated in 5% CO₂ at 37° C. for 5 minutes.
The cells were washed three times with a D-MEM medium and were microscopically observed in a new RPMI1640 medium. The localization of the peptide was observed using a confocal fluorescence microscope for the microscopic observation.

T1 sequence (P08581 25-1390): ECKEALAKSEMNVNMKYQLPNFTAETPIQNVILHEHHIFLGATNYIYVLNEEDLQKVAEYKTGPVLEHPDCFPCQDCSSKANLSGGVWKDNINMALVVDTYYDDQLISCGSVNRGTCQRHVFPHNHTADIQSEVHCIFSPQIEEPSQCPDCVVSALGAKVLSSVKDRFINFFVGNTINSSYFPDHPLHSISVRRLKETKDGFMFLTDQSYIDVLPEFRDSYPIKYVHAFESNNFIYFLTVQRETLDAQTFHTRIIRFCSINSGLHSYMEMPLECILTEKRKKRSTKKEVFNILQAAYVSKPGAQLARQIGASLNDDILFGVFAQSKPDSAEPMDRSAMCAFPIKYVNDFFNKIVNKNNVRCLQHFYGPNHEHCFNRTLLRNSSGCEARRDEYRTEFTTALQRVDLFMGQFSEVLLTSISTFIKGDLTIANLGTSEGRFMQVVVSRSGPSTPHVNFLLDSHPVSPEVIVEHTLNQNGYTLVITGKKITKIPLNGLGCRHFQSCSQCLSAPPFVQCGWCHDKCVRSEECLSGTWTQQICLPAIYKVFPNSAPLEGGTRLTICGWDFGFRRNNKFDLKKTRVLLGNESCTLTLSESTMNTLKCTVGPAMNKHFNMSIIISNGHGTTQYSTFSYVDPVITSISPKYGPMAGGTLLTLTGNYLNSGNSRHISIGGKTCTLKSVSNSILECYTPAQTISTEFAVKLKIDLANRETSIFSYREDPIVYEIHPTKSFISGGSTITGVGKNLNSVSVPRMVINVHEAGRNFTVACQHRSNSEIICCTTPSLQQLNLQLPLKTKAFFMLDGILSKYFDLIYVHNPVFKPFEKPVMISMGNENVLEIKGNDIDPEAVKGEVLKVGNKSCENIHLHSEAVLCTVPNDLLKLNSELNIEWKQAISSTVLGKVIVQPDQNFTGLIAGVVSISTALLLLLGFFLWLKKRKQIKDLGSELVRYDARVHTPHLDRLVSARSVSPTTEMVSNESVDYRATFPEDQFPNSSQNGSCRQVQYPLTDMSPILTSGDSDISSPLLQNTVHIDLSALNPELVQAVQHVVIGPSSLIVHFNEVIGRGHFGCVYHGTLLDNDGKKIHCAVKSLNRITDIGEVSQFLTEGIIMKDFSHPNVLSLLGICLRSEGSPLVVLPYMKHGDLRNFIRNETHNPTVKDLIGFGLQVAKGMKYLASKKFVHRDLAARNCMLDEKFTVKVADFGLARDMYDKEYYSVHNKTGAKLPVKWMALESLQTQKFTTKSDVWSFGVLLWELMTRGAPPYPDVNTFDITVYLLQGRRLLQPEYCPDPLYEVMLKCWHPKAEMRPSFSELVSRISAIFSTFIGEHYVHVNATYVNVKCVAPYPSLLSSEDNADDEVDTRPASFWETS

{CH2CO}-YERVNHLFRNQTWDRCGK(fluorescein) (thioether N-16, Negative control) [D4-3scr-fluorescein]: no binding (tested: 1 uM).
